Data as given in paper PMC11009304.

Experiments:
[1] = biological target: hPIV3 L–P polymerase complex (L–P4) (human parainfluenza virus type 3 (hPIV3)) (UniProt P12577); test: SEC; analytical SEC of the purified L–P complex, Superdex 200 Increase 5/150 GL, buffer B (20 mM Tris-HCl pH 7.5, 300 mM NaCl, 1% glycerol, 6 mM MgSO4, 1 mM DTT), calibrated with standard markers
[2] = biological target: hPIV3 L–P polymerase complex (L–P4) (human parainfluenza virus type 3 (hPIV3)) (UniProt P12577); test: SEC-MALS; purified L–P complex on an XBridge Protein BEH SEC column (200 Å) with a DAWN MALS detector, 0.5 ml/min, buffer B; bovine serum albumin as control
[3] = biological target: human parainfluenza virus type 3 (hPIV3) phosphoprotein (P) (human parainfluenza virus type 3 (hPIV3)) (UniProt P06162); test: cryo-EM structure

Substance	stoichiometry N [1]	stoichiometry N [2]	stoichiometry N [3]
hPIV3 L–P polymerase complex (L–P4) (from UniProt P12577;P06162)	2	2	
human parainfluenza virus type 3 (hPIV3) phosphoprotein (P) (from UniProt P06162 1-604) (natural protein)			4
